Laboratory results published in US20240327530A1 (ICHNOS SCIENCES, published 2024).

T1: Recombinant mouse IL-1RAP-his (Sino Biologicals, catalog no. 52657-M08H) (mouse, UniProt Q61730 21-350)
T1 construct: Bought; not shown: His tag of the bought protein
T1 sequence: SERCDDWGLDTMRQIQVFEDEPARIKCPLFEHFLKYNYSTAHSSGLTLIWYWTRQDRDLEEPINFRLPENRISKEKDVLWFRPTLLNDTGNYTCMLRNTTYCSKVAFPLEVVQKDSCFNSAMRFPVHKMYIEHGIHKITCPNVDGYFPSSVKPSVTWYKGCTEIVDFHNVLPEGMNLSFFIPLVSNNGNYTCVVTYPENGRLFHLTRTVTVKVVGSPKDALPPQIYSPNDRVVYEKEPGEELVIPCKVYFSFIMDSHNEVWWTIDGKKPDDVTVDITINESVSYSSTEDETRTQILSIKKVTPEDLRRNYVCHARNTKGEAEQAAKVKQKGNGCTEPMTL

T2: Human IL-1RAP, membrane-bound on human cells (HaCaT, dermal fibroblasts, neutrophils, PBMC, whole blood) (human, UniProt Q9NPH3 21-570)
T2 construct: Endogenous protein on cells
T2 sequence: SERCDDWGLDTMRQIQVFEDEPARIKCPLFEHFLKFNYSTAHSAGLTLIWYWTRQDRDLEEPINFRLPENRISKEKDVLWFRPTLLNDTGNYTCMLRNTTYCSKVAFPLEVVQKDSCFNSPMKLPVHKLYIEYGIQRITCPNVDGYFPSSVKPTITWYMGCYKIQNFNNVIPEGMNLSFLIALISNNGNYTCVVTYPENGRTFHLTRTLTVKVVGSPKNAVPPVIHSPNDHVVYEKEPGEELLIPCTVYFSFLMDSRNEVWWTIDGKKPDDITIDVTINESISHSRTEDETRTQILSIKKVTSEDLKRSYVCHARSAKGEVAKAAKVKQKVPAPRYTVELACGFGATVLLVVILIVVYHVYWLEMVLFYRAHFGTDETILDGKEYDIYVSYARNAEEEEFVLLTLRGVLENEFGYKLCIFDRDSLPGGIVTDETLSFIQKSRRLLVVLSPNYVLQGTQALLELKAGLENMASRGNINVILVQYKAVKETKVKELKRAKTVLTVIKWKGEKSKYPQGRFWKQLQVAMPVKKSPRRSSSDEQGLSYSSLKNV

B1: Anti-IL-1RAP-C3-A3 mmIgG2a LALA (antibody, V domains shown)
VH: EVQLLESGGGLVQPGGSLRLSCAASGFIFSHYGMSWVRQAPGKGLEWVSAISYDGEGTLYADSVKGRFTISRDNSKNTLYLQMNSLRAEDTAVYYCARFRYYTAFDYWGQGTLVTVSS
VL: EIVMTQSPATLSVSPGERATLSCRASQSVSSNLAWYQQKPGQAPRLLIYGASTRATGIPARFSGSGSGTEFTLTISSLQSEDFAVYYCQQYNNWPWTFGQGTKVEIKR
notes: also called anti-IL-1RAP-C3-A3 mouse IgG2a LALA
B2: Anti-IL-1RAP-C8-RecC-ES-IgG1LALA (antibody, V domains shown)
VH: QVQLVQSGAEVKKPGSSVKVSCKASGSPAEPYAIQWVRQAPGQGLEWMGYIIPSLGGYDYAQKFQGRVTITADESTSTAYMELSSLRSEDTAVYYCARGQTLYESGRQFDIWGQGTLVTVSS
VL: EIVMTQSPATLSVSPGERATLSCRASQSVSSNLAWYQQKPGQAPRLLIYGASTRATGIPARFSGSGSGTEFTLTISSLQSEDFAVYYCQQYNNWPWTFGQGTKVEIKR
notes: also called ISB 880-C8-recC-ES

Tests used:
[1] = target: T1, Recombinant mouse IL-1RAP-his (Sino …); assay: SPR, mouse IgG2a LALA captured on anti-mouse IgG Fc CM5 chip, mouse IL-1RAP-his as analyte in a concentration series, 1:1 fit, one representative replicate
Experimental: Anti-IL-1RAP-C3-A3 mouse IgG2a LALA was immobilized on a Series S CM5 sensor CHIP coupled with anti-mouse IgG Fc. Mouse IL-1RAP-his was injected over immobilized IgG2a LALA in concentration series in HBS-EP+ buffer. One representative replicate is presented. Plots are showing data expressed as number of resonance units (abbreviated RU; Y axis) vs. time (s, X axis). Dotted lines represent the measured data while solid lines represent simulated fits. KD: equilibrium dissociation constant; Ka: association constant; Kd: dissociation constant.
Surface plasmon resonance (SPR) was used to measure the binding affinities of mouse IgG2a LALA molecules for mouse IL-1RAP. Affinity was measured on a BIACORE™ T200 instrument (BIACORE™ GE […]®) at 25° C. and analyzed with the BIACORE™ T200 Evaluation Software (v3.1). Measurements were performed on Series S CM5 sensor chips (BIACORE™ T200, BIACORE™, GE […]®, catalog no. BR100530) coupled with anti-mouse IgG Fc (BIACORE™, GE […]®, catalog no. BR100838) using a commercial amine coupling kit (BIACORE™, GE […]®, catalog no. BR100050). SPR measurements were performed with commercially available recombinant mouse IL-1RAP-his (Sino Biologicals, catalog no. 52657-M08H). The affinity to mouse IL-1RAP was assessed by immobilizing anti-mouse IL-1RAP mouse IgG2a LALA molecule and using mouse IL-1RAP protein as analyte. Around 150 RU of mouse IgG2a LALA was captured on fc2 of a Series S CM5 sensor chip coupled with anti-mouse IgG Fc. Mouse IL-1RAP-his was injected in multi cycle kinetic at different concentrations ranging from 0.14 to 100 nM, in HBS-EP+ buffer (BIACORE™, GE […]®, catalog no. BR100669) at a flow rate of 30 μl/min for 3 min on fc1 and fc2 (fc1 being used as reference). Dissociation was monitored for 15 min. After each cycle, the surface was regenerated with 60 μl of regeneration solution provided with anti-mouse IgG Fc capture kit (BIACORE™ GE […]®, catalog no. BR100838). Experimental data were processed using the 1:1 Langmuir kinetic fitting model. Measurements included zero-concentration samples for referencing. […]

[2] = target: T2, Human IL-1RAP, membrane-bound on human …; assay: flow cytometry on human neutrophils, nonlinear sigmoidal regression
Experimental: In brief, cells were harvested, counted, and plated at 50,000 cells/well in a 96-well round-bottom plate. The plate was centrifuged at 350 g for 3 minutes and the cells were resuspended in 50 μl of FACS® buffer (PBS (1×)+2.5% FCS+2 mM EDTA+0.05% NaN₃) containing various concentrations (ranging from 50 to 0.00003 μg/ml) of either anti-human IL-1RAP_candidate_1 or Isotype control_5 antibodies. Stained cells were incubated for 30 minutes at 4° C., washed twice with FACS® buffer at 350 g for 3 min and resuspended in […] of a monoclonal anti-human IgG PE-Cyanine7 secondary antibody (Biolegend, 409316) diluted 1/200 in FACS® buffer. Cells were then washed twice and resuspended in 200 μl of FACS® buffer containing SYTOX® Green dead cell stain (THERMO FISHER […]®, S34860) and samples were acquired on a CYTOFLEX® instruments (Beckman Coulter). The cells were gated based on size on FSC vs SSC and analyzed for PE-Cyanine7-geometric mean (geomean) fluorescence intensity using FLOWJO® software. Finally, relative geomean fluorescence intensity was calculated by subtracting fluorescence of anti-human IL-1RAP_candidate_1 per fluorescence of Isotype control_5. As depicted in FIGS. 6A, 6B, 6C, 6D, and 6E, anti-human IL-1RAP_candidate_1 antibody recognizes membrane-bound IL-1RAP expressed on HaCaT cell line and all primary cells. Multiple independent experiments were performed using multiple donors. […]

Row | Binder | Kd [1] [nM] | koff [1] [s⁻¹] | kon [1] [M⁻¹ s⁻¹] | Kd [2] [nM]
1 | B1 | 0.557 | 7.6e-05 | 137000 | –
2 | B2 | – | – | – | 1.67
